Data published in publication doi:10.1101/2023.12.07.570680.

T1: EMB1006-MBP (Arabidopsis thaliana, UniProt Q9FGR7 44-723)
T1 sequence: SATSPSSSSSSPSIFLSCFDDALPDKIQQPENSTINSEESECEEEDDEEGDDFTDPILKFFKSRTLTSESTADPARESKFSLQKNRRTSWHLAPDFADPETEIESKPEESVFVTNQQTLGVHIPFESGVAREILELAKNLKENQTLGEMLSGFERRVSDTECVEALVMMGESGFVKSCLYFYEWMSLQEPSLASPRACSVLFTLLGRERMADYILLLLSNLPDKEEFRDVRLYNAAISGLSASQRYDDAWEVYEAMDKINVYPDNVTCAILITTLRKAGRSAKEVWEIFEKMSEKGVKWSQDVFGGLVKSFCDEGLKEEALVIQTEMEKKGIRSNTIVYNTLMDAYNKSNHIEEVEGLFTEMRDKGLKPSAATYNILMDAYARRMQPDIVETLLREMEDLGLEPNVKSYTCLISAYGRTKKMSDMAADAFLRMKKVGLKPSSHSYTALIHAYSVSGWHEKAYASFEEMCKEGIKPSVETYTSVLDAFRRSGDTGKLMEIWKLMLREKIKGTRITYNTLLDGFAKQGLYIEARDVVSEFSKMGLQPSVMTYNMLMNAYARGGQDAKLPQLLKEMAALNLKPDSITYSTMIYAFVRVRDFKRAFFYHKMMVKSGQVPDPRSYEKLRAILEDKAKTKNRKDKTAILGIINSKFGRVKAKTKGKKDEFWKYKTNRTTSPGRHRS

T2: EMB976-MBP (Arabidopsis thaliana, UniProt O04647 1-1038)
T2 sequence: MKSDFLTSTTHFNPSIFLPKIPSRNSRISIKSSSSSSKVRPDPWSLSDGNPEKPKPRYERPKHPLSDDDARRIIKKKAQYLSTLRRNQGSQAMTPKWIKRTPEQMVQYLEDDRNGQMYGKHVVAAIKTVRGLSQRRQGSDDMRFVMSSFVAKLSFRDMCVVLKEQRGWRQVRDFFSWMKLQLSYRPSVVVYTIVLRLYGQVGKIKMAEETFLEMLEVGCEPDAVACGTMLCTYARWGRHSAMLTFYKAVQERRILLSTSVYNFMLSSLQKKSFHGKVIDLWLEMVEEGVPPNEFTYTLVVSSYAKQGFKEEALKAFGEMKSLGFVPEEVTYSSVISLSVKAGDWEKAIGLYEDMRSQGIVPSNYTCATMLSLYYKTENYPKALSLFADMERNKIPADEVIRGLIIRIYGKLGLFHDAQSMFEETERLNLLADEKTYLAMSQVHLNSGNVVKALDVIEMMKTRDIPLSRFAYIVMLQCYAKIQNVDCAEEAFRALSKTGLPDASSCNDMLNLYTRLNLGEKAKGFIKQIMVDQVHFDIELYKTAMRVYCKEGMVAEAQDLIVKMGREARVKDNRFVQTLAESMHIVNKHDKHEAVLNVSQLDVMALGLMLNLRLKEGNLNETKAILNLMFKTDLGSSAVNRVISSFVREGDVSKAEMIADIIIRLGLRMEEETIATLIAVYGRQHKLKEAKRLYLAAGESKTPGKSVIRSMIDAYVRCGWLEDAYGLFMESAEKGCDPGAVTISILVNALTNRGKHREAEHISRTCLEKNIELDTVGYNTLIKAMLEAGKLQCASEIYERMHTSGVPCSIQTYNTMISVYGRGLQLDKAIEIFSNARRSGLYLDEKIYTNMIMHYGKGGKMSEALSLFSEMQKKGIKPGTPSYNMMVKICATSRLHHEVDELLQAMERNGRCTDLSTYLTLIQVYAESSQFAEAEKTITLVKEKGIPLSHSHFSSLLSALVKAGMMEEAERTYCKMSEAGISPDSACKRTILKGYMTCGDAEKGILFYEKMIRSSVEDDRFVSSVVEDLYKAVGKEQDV

B1: clpP1-exon2-Cold (ssRNA)
RNA: AAUUACCAAACGUAUAGCAUUCC
B2: Cy5-clpP1-intron2-976 (ssRNA)
RNA: GAAGAGGUUUUUCAAAUGAUA
B3: Cy5-clpP1-exon2 (ssRNA)
RNA: AAUUACCAAACGUAUAGCAUUCC
B4: clpP1-intron2-Cold (ssRNA)
RNA: UUUUUUAGAUUAAAAAAAAAUUCG

Key:
[1] = biological target: T1, EMB1006-MBP; assay: competition
[2] = biological target: T2, EMB976-MBP; assay: EMSA
[3] = biological target: T1, EMB1006-MBP; assay: EMSA

| Binder | binding result [1] | also measured |
| --- | --- | --- |
| B1 | binds |  |
| B2 |  | binding result [2]: no binding |
| B3 |  | binding result [3]: binds |
| B4 | no binding |  |
